Laboratory results published in US20240102021A1.

Biological target: MC1R (endogenous, MNT-1 cells) (human) (UniProt Q01726)
Assay: cell-based or functional assay

Sequence of UniProt Q01726 (Q01726 whole entry): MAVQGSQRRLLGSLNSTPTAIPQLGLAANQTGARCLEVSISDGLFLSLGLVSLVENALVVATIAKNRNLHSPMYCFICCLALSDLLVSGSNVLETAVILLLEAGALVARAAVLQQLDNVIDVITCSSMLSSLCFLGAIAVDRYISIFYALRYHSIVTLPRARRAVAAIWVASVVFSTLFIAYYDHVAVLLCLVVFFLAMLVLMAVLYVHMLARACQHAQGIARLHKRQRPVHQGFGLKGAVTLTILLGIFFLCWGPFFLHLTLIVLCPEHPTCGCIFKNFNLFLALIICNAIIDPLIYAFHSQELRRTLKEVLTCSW

Substance | increase in cellular cAMP (Epac H187 FRET ratio CFP/YFP, normalized to FSK+IBMX), control MCh-expressing MNT-1 cells [%] | increase in cellular cAMP on αMSH stimulation (Epac H187 FRET, normalized to FSK+IBMX), MNT-1 cells expressing OPN3-MCh [%]
NDP-αMSH (peptide) | 50 | 
OPN3-cMCh (from UniProt Q9H1Y3 1-402) (receptor) |  | 10
